Data on 15 sequences can be found in a protein production outcome set (Wang et al. 2014).

The data set can be described thus: label from the status in PepcDB records.
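Note: failed if final PepcDB status was selected cloned or expressed and not failed if soluble or beyond.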

As to “MTFTSSFHYQALPMRVSFEVGAVTKIGEELDRLGLSRALVLCTPEQKHLADLVMDHLGDRGAGIFDQARMHVPVETADRARDRARKLGADSCVVIGGGSSIGLGKAIALEHGLPIIAIPTTYAGSEMTPIWGLTRDGRKQTGRDAKVLPQSVIYDPQLTATLPAEISAASGLNAVAHAVEALYAPDASPIISLMAEEGVRAFAESLPAVVADGNDLDARSKALYGAWLCGACLGATTMSLHHKLCHVLGGSLDLPHAQTHAIVLPHVLGYNESHAPAARAALQRALGTDGDPSTALWELEQQLQIPHSLEELGVRETQLPAVIDEVLSNPYSNPTPVTEDGLRHLLGQALRGDRPTRR”, the protein production entry was “failed”.
As to “MTGAVVVDIPLRWSDMDAQGHVNNVRISELVQESRNQAFYTNGAQEMLDTGIVVVSQDVEFLAPFVVDGSPLRVAVGCSQLGAARTVLDYRAWHHDVEVARARGTICPFDFATGRPRRLTDGERGAFESMKVESQQWKPIKVVDVSEAGDFIEVPIRWSDVDRQGHVNNVSLAGYLQEARILATTSWSPGMRRAGNYLWVVVRQDIRYRRQVLPTQRSCRVHTALTRLGTSSMTLAGSIATEEGSALDAATVLVCVDPKTGASVPIDDQTRQALSAYLVTV”, the protein production result is listed as “failed”.
Under “MTGLINAIPATNKDEYKNVGVYIEHRGDELKRPSIEMIGIGKQLARKVNEKLICVVIGDKVDGIAKEVGEYGCDIVLAAESPELAEYRTMPYAEIIGGYIQEYKPNIFLLAATRNGRDLASRIAVKSRTGITADCTVLDIDENRTLLANRPTYGESTLAEILCRNHRPQMATARPGIFPPAEKEKDHKYEVIKKKVDVDKKLLGKQILKFIPRKSTDLTSAKIVVAGGLGLGGPDGFKMLEELANLIGGAVGSSRPPVDLGWITRDHQVGQTGQSVRPDLYIAVGISGKPQHIAGMKFSKVIVSINKDPNAEITKYSDYIITEDYRKVIPALIDAIKNSKKAQAPVQKA” stands “failed”; under “MTGPAENSTNFPGHRLKSPLPLRLATLSLLILYPVAWFAPLMRAGLLPIFGLSEISVITGLQSLWASDVALALIVTAFALFAPYLKTIGTALIQWNLLDPRAQPALHILGKLAMADIFLIALYITLAKGISYATIEAAWGLYLFTACILASIALGLLTERQIRKATR”, “failed”.
On to “MTGQAAGPAAGPAAGQATKHAGGRRPGETRTREAILTAARVCFAERGFDATSLRRIAETAGVDQSLVHHFYGTKENLFLQALELPGKIEEAITAAAQGGLDGIGERVVRAHLSVWDDVSSRPALMTMVRSAAIHRAAAARLRETATGILARALGGVITGEDAMLRTSMVATQLVGLAMMRYVAHLEPLASADTDTVARHYGRAVQAIVTDRD”, for which the protein production result is “not failed”.
“MTGRVCVLVMDSFGIGASLDAARYGDAGANTLVHIYEACKRGECDIEGVRKGPLMLPNLAGKGLYHAAMASSGLSFIDLATLAIPSGYYGYAVEQSLGKDTPSGHWEMAGVPVTFEWGYFPDKPYCFPEELISEFIKQCNLPGVLGEKHASGTIIIDELGEKHIRTGKPIVYTSADSVFQIAAHEEAFGLQRLYDICKIARNLVDKYQIGRVIARPFTGKPGSFKRTGNRKDYATPPPEKTLLDFLKEDGREVIAIGKIADIYAHQGVTQEIKADGNMALFDATLSAMKTAPQGSLVFTNFVDFDSSYGHRRDIAGYAHALEQFDARLPELDALLQPDDMVFIAADHGCDPTFPGSDHTREHIPVLVFGPQVNSKFIGRRDCFADIGQSIAEHLQLSSPLAHGVSFL”: the protein production entry is recorded as “failed”.
On to “MTHTHRPAALEVHHPQPLAVHPTVAPLVTVQPGPTPAVQSIVLPDGRVVTGYTLTPAPALAPVDARPAVSRTAVNVALGGVGFAAVCGGLVLLTTFIAALTTFISQLITLAAVIFGGWIAVQILGGTRHTGRGGTTINIRKAVIKRSHFHG”, for which the protein production result was “failed”.
Take “MTIAAAPPSSRFRAVRIWLTLVAALIAVMVLVGGATRLTESGLSIVEWKPVTGSLPPLTDTQWHAAFDGYKQIPQYRELNAGMTLDQFKTIFWWEWSHRLLGRVIGIVYLLPFLWFLWRGAIGPEWKRALWIIFALGALQGAVGWWMVASGLSQRTEVSQVRLATHLSLALIIYAAIVWTLRRMADGARVAAPVRLRVTALALLGLTFVQLYAGALVAGLRAGRLYNTWPEIDGALIPDAARLWFESPWWKNLFDNHLTVQFDHRMLAYALWTLAALHMIDALRTRAAARGAVQLFLALTAQATLGIFTVLYAAPIDLALVHQAMALVVLTLAVLQAERLTATRKDRTARDRGAAGRLAIPSEPFPSA”: the protein production entry is given as “failed”.
Turning to “MTIAFLVLVVALASGFAFLNGFRDVSNAVALSTRTRALTPSIAVLLAAIFNFVGAMLSGTFILAFTQSWITLPEGTSGLTMLASALTAAILWGVYAWWRGIPLSSTNSLIGGLIGAGAASVLVGGNAVGGMDNVLLTQVALPLVLSPVIAFVAAYLLVWPVTWAARYTQPNVVNRRFRRAQAISTAAVAFGHGLQDGQRTAAVMVLAMVAAGLSSGSDVPLWILLVTAIMLTAGTMFGGWRISHTLGHKLIRVDPLRGFVAQTLTSVMLFIGAIGFHLPLSTTHTLTAAVLGSGVNQRFHTVNRRLVRRVLLFWVATPLITAAAAFILELAFSPLADL”, the protein production entry is given as “failed”.
“MTIAHISDLHFGRIADSGVVEALLDEINAAGIDLVAVSGDLTQRARPAEYRAARNLLDALGPPTLVVAGNHDVYPWWRPLKRLRTPLERYRQFITEDLAPTFEAGGVAALGLTSAYGPSIKGGRIGPADRAAMRAFFSGTGDDRFKVLVVHHQLHPTAIGPISPHPVARQAQQTLAVAGEVGIDLILCGHLHISAIQPLEIIPGTPRIVVASAGTATSNRWREPTGPINFYNVVSVEPEAFSVEERRYVPDEGRFVRDGVTRFDHAG”: the protein production entry is “failed”.
Under “MTIATSTKPQINWVNTLFFLGLHIGALFAFIPSNFSWAAVGVALLLYWITGGLGITLGFHRLVTHRSFQTPKWLEYFLVLCGTLACQGGPIEWVGTHRIHHLHSDTDPDPHDSNKGFWWSHIGWLIYHSPSHADVPRFTKDIAEDPVYQFLQKYFIFIQIALGLLLLYLGGWSFVVWGVFFRIVWVYHCTWLVNSATHKFGYRTYDAGDRSTNCWWVAVLVFGEGWHNNHHAFQYSARHGLEWWEVDLTWMTVQLLQILGLATNVKLADKKQ” stands “failed”; under “MTICCPVIALAFALNRKPVSAPTARIAVLARNTSMSFASLGLIDPLLRNLQDLNYQTPTPVQVKAIPAVLGGKDVMAGAQTGTGKTAGFALPLLQRLVQQGPAVSSNRARVLVLVPTRELAEQVLQSFVAYGKGLDLRFLAAYGGVSINPQMMKLRKGVDVLVATPGRLLDLNRQNAVQFDQVETLVLDEADRMLDLGFARELNAVFAALPVQRQTLLFSATFTDDIRTMAASILRSPVNISVSPPNVTGSKIKQWVVTVDKRNKPDLFMHLVAENNWDHALVFVKTRNGVEYLAAMLDEAGYAVDTIHGDKPQPARLRALERFKTGEVQMLVATDVAARGLDIDDLPLVINVDLPIVAQDYVHRIGRTGRAGASGVAVSLVCADEAPQLAAIEALIGQTLRREEEPGFEAEHRVPETSSTGQIIKKPKKPKKPKVPQGGAAATPVAGKKPQPQGGDGKRKGGGAAGKGASVLNGSPFSVQKPRGKGKPAGKAVAGARKPAGKPAGGRGKH”, “failed”.
“MTIEKKKNKIIFTRTFSAPINKVFDAYTKRELFEQWFHPQDASVTVYDFNATKGGNAFYAIQAPQMTSYTIAEYLQVDAPYYIEYLDYFATSKGEKDTSMPGMHITLNFEEVKGKTTVTSTSTFPTESAAQQAIDMGVETGMNSTLNQLEKLLNQKLEHHHHHH”: the protein production entry is on record as “not failed”.
Take “MTIEPTQSPSSEPEVHSGEDFVHIDDPRPTGDISLSDSIVNVEKDELLDEAAEEEFRGSDSVFSGGDGGGADDDGGECSSEATKVELPEELAKSVVILTCESTADGGSCDVYLVGTAHVSKVILVLRFHLVLSLQRSCLGIELIFW”: the protein production result is given as “failed”.
Under “MTIIKYIKFVVIIVIVTIVFSCSKNEAGNSEYDPSLPISLTDFFPIQGGMATRMVIEGANFGTDLSQIKVFFNQKEASILNVKNSIIYLLVPKLPGNDCIVTVKVGNQEARFTRNFQYIENYSVTTIAGQPGTNLFVEGTLAAAQFGPVQHLAIDDENNLFITERNGSDGKGTCSVLNEESGTVTFLFKASDNLNVPTVNAQTQNVYIPLDGGYTFYELNPVNQWIAKSRLVLHPSKEQQEAGMDDFEINWKHSLAFSRYDNMIYTRSYGGDLIKVDPETRVGQKIGNFFPNTDSFIVAHPTQPEILYIAYAAKHVIYTYNIETGEHKLFAGAFGQSGWNDGIATDAEFNSPRQMSLDMEGNIYIADSGNHCIRMIDKNGIVTTPIGQPGEAGYADGSPDMALLNDPRGVAVNSEGDVYIADLGNRCIRKLTLQLEHHHHHH” stands “failed”.
